The source of these data is paper PMC4191430 (Nucleic Acids Research, 2014).

This test concerns the target T1, HA-Fbxl5 (human (cDNA from A549 cells), UniProt Q9UKA1 1-691).
T1 sequence (looked up): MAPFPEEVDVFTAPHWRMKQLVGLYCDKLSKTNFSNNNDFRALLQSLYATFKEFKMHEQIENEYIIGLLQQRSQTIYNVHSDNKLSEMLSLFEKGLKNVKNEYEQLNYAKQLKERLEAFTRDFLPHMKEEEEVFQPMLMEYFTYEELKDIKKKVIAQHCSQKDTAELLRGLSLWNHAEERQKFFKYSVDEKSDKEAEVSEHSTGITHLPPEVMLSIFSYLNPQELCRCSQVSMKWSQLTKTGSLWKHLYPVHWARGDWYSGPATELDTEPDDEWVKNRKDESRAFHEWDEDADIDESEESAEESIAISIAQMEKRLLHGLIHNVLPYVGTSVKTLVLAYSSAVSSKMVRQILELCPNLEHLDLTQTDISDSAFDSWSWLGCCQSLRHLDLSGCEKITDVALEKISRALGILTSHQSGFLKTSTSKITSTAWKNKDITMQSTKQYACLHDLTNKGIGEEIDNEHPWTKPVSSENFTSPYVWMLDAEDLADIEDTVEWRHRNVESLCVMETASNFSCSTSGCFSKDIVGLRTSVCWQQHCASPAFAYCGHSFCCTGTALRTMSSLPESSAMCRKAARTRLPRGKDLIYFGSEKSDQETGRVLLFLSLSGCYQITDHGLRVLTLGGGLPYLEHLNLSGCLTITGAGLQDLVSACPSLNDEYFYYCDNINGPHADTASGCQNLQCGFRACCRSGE
The experiment in a line: pull-down.

B1: GST-hSSB1 (natural protein, human (cDNA from A549 cells), UniProt Q9BQ15 1-211, looked up)
chain: MTTETFVKDIKPGLKNLNLIFIVLETGRVTKTKDGHEVRTCKVADKTGSINISVWDDVGNLIQPGDIIRLTKGYASVFKGCLTLYTGRGGDLQKIGEFCMVYSEVPNFSEPNPEYSTQQAPNKAVQNDSNPSASQPTTGPSAASPASENQNGNGLSAPPGPGGGPHPPHTPSHPPSTRITRSQPNHTPAGPPGPSSNPVSNGKETRRSSKR
B1: the binding result is “binds”.
